# Measurements reported in patent publication US20190359663A1.
# Key:
# [1] = biological target: L-FABP bound to arachidonic acid (human) (UniProt P07148); test: sandwich ELISA; L-FABP stored at 37 C for two weeks in BSA-containing buffer; sample stored at 4 C = 100 (FIG. 19)
# [2] = biological target: wild type human L-FABP protein (liver-type fatty acid-binding protein) (human) (UniProt P07148); test: as above
# [3] = biological target: L-FABP bound to oleic acid (human) (UniProt P07148); test: sandwich ELISA; L-FABP stored at 37 C for two weeks in BSA-containing buffer; sample stored at 4 C = 100 (FIG. 20)
# [4] = biological target: wild type human L-FABP protein (liver-type fatty acid-binding protein) (human) (UniProt P07148); test: as above
# [5] = biological target: L-FABP M19L/M74L/M113L (human) (UniProt P07148); test: ELISA (kit not named in this example); OD ratio with and without oxidation treatment with 10 mM AAPH for 1 h at 25 C; FIG. 21
# [6] = biological target: L-FABP WT treated with 0.5 mM AAPH (human) (UniProt P07148); test: as above
# [7] = biological target: L-FABP WT treated with 4 mM AAPH (human) (UniProt P07148); test: as above
# [8] = biological target: wild type human L-FABP protein (liver-type fatty acid-binding protein) (human) (UniProt P07148); test: as above
# L-FABP M19L (human) = L-FABP M19L (human) (UniProt P07148); test: ELISA (kit not named in this example); OD ratio with and without oxidation treatment with 10 mM AAPH for 1 h at 25 C; FIG. 23
# [9] = biological target: L-FABP M19L/M113L (human) (UniProt P07148); test: as above
# [10] = biological target: L-FABP M19L/M74L/M113L (human) (UniProt P07148); test: as above
# [11] = biological target: L-FABP WT treated with 0.5 mM AAPH (human) (UniProt P07148); test: as above
# [12] = biological target: L-FABP WT treated with 4 mM AAPH (human) (UniProt P07148); test: as above
# [13] = biological target: L-FABP bound to arachidonic acid (human) (UniProt P07148); test: as above
# [14] = biological target: L-FABP bound to oleic acid (human) (UniProt P07148); test: as above
# [15] = biological target: wild type human L-FABP protein (liver-type fatty acid-binding protein) (human) (UniProt P07148); test: as above
# [16] = biological target: L-FABP that had been oxidation-treated with 40 mM AAPH (human) (UniProt P07148); test: sandwich ELISA (RENAPRO L-FABP Test TMB); L-FABP stored at 37 C, measured every week for two weeks; sample stored at 4 C = 100
# [17] = biological target: wild type human L-FABP protein (liver-type fatty acid-binding protein) (human) (UniProt P07148); test: as above
# [18] = biological target: L-FABP M19L/M74L/M113L (human) (UniProt P07148); test: sandwich ELISA (RENAPRO L-FABP test TMB); L-FABP reacted with 0 to 5 mM AAPH for 1 h at room temperature with BSA; untreated sample = 100
# [19] = biological target: wild type human L-FABP protein (liver-type fatty acid-binding protein) (human) (UniProt P07148); test: as above
# [20] = biological target: L-FABP M19L/M74L/M113L (human) (UniProt P07148); test: sandwich ELISA (RENAPRO L-FABP Test TMB); L-FABP stored at 25 C with BSA, measured every week for four weeks; sample stored at -80 C = 100
# [21] = biological target: wild type human L-FABP protein (liver-type fatty acid-binding protein) (human) (UniProt P07148); test: as above
# [22] = biological target: L-FABP M19L/M74L/M113L (human) (UniProt P07148); test: sandwich ELISA (RENAPRO L-FABP Test TMB); L-FABP stored at 37 C with BSA, measured every week for four weeks; sample stored at -80 C = 100
# [23] = biological target: wild type human L-FABP protein (liver-type fatty acid-binding protein) (human) (UniProt P07148); test: as above
# [24] = biological target: L-FABP M19L/M74L/M113L (human) (UniProt P07148); test: sandwich ELISA (RENAPRO L-FABP Test TMB) with 1 mass % BSA; oleic acid added to L-FABP at various concentrations, 1.5 h room temperature; untreated sample = 100
# [25] = biological target: wild type human L-FABP protein (liver-type fatty acid-binding protein) (human) (UniProt P07148); test: as above
# [26] = biological target: L-FABP M19L/M74L/M113L (human) (UniProt P07148); test: sandwich ELISA (RENAPRO L-FABP Test TMB) with 1 mass % BSA; arachidonic acid added to L-FABP at various concentrations, 1.5 h room temperature; untreated sample = 100
# [27] = biological target: wild type human L-FABP protein (liver-type fatty acid-binding protein) (human) (UniProt P07148); test: as above
# [28] = biological target: L-FABP M19L/M74L/M113L (human) (UniProt P07148); test: sandwich ELISA (RENAPRO L-FABP Test TMB) with 1 mass % BSA; 8-iso-prostaglandin F2α added to L-FABP at various concentrations, 1.5 h room temperature; untreated sample = 100
# [29] = biological target: wild type human L-FABP protein (liver-type fatty acid-binding protein) (human) (UniProt P07148); test: as above
substance,measurement,setting,value
"labeled antibody of the sandwich ELISA kit RENAPRO L-FABP Test TMB (CMIC HOLDINGS Co., Ltd.)","ELISA measured value, % of sample stored at 4 C",[1],99.9 to 100%
same,"ELISA measured value, % of sample stored at 4 C",[2],118 to 132%
same,"ELISA measured value, % of sample stored at 4 C",[3],100 to 110%
same,"ELISA measured value, % of sample stored at 4 C",[4],120 to 130%
same,"coefficient of change in oxidation (OD ratio, oxidation-treated / not treated)",[5],< 1.3
same,"coefficient of change in oxidation (OD ratio, oxidation-treated / not treated)",[6],< 1.3
same,"coefficient of change in oxidation (OD ratio, oxidation-treated / not treated)",[7],< 1.3
same,"coefficient of change in oxidation (OD ratio, oxidation-treated / not treated)",[8],1.8
same,"coefficient of change in oxidation (OD ratio, oxidation-treated / not treated)",L-FABP M19L (human),< 1.4
same,"coefficient of change in oxidation (OD ratio, oxidation-treated / not treated)",[9],< 1.4
same,"coefficient of change in oxidation (OD ratio, oxidation-treated / not treated)",[10],< 1.4
same,"coefficient of change in oxidation (OD ratio, oxidation-treated / not treated)",[11],< 1.4
same,"coefficient of change in oxidation (OD ratio, oxidation-treated / not treated)",[12],< 1.4
same,"coefficient of change in oxidation (OD ratio, oxidation-treated / not treated)",[13],< 1.4
same,"coefficient of change in oxidation (OD ratio, oxidation-treated / not treated)",[14],< 1.4
same,"coefficient of change in oxidation (OD ratio, oxidation-treated / not treated)",[15],1.8
same,"ELISA measured value (OD 450 nm), % of sample stored at 4 C",[16],94 to 102%
same,"ELISA measured value (OD 450 nm), % of sample stored at 4 C",[17],114 to 130%
same,"ELISA measured value (OD 450 nm), % of untreated sample",[18],102 to 107%
same,"ELISA measured value (OD 450 nm), % of untreated sample",[19],112 to 121%
same,"ELISA measured value (OD 450 nm), % of sample stored at -80 C",[20],101 to 111%
same,"ELISA measured value (OD 450 nm), % of sample stored at -80 C",[21],110 to 128%
same,"ELISA measured value (OD 450 nm), % of sample stored at -80 C",[22],104 to 113%
same,"ELISA measured value (OD 450 nm), % of sample stored at -80 C",[23],117 to 143%
same,"ELISA measured value (OD 450 nm), % of untreated sample",[24],92 to 107%
same,"ELISA measured value (OD 450 nm), % of untreated sample",[25],100 to 124%
same,"ELISA measured value (OD 450 nm), % of untreated sample",[26],88 to 103%
same,"ELISA measured value (OD 450 nm), % of untreated sample",[27],104 to 220%
same,"ELISA measured value (OD 450 nm), % of untreated sample",[28],96 to 101%
same,"ELISA measured value (OD 450 nm), % of untreated sample",[29],95 to 118%
